# Assay results taken from publication PMC7785020, “A unique hormonal recognition feature of the human glucagon-like peptide-2 receptor” (Cell Research, 2020).
# Where a chain is given by its changes, count along the chain named.
# Key:
# GLP-2R ECL1 (GLP-1R) = GLP-2R ECL1 (GLP-1R) (UniProt O95838); experiment: radioligand binding; competition on transiently transfected COS-7 cells: unlabeled GLP-2(1–33) 0.1 nM to 1 μM against 10–15 pM [125I]GLP-2(1–33, M10Y); 4 h, 4 °C; 50 mM HEPES pH 7.4, 1 mM CaCl2, 5 mM MgCl2, 0.5% BSA; three-parameter logistic fit
# Chain of GLP-2R ECL1 (GLP-1R) (O95838 whole entry): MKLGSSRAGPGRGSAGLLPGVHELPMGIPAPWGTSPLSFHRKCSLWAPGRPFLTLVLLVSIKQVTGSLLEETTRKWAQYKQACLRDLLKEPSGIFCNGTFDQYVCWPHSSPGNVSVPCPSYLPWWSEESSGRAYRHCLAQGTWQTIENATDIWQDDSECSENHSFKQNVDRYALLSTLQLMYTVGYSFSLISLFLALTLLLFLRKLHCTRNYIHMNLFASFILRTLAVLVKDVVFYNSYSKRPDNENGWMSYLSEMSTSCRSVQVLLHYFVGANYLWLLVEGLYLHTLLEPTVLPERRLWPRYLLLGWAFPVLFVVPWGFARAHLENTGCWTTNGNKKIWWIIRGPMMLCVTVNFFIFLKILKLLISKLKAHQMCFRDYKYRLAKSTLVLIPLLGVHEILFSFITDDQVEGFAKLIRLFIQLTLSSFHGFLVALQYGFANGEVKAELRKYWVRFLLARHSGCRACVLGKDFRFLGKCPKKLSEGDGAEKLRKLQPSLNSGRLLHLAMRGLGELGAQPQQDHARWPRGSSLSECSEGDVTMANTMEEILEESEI
# [1] = molecular target: GLP-2R K414^7.35 A (human) (UniProt O95838); experiment: as above
# Chain of GLP-2R K414^7.35 A (human) (O95838 whole entry K414A): as the sequence (O95838 whole entry) above, with K414A counted along it
# [2] = molecular target: GLP-2R N334^ECL2 A (human) (UniProt O95838); experiment: as above
# Chain of GLP-2R N334^ECL2 A (human) (O95838 whole entry N334A): as the sequence (O95838 whole entry) above, with N334A counted along it
# [3] = molecular target: GLP-2R W340^5.36A (human) (UniProt O95838); experiment: as above
# [4] = molecular target: GLP-2R Y182^1.43A (human) (UniProt O95838); experiment: as above
# Chain of GLP-2R Y182^1.43A (human) (O95838 whole entry Y182A): as the sequence (O95838 whole entry) above, with Y182A counted along it
# [5] = molecular target: Human GLP-2R WT (1–553) (human) (UniProt O95838); experiment: as above
# GLP-2R R344^5.40A = molecular target: T1, GLP-2R R344^5.40A (Homo sapiens, UniProt O95838, R344A); experiment: cAMP accumulation, R344^5.40A; assay type: cell-based; conditions: Table S3, R344A; HEK 293T, 30 min, RT; mean ± SEM, n ≥ 3 in duplicate; read-out: cAMP Emax (% WT)
# T1 sequence (O95838 1-553 R344A): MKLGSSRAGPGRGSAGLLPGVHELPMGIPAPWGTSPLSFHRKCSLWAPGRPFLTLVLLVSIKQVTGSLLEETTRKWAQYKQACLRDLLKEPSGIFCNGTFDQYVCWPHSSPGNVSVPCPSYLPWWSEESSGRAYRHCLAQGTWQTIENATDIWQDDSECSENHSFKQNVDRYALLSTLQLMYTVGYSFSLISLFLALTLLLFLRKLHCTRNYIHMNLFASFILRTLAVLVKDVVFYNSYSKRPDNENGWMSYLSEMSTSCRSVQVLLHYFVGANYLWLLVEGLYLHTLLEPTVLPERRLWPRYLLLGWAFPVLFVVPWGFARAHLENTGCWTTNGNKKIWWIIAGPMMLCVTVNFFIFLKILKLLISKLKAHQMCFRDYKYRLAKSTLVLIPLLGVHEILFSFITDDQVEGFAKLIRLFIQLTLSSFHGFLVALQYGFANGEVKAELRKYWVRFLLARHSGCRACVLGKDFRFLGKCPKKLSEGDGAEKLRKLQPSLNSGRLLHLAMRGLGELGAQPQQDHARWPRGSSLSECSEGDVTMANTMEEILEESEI
# Experimental: (§1) HEK 293T cells were cultured in Dulbecco’s Modified Eagle’s Medium (DMEM) (Gibco, Waltham, USA) supplemented with 10% (v/v) fetal bovine serum (FBS) (Gibco) and 1% (v/v) sodium pyruvate (Gibco) at 37 °C, 5% CO2 in a humidified incubator. They were seeded onto 6-well cell culture plates and transiently transfected with different GLP-2R constructs using Lipofectamine 2000 transfection reagent (Invitrogen, Carlsbad, CA, USA). After 24 h, the transfected cells were seeded onto 384-well microtiter plates (3000 cells per well) in HBSS supplemented with 5 mM HEPES, 0.1% (w/v) bovine serum albumin (BSA) and 0.5 mM 3-isobutyl-1- methylxanthine, and stimulated with increasing concentrations of GLP-2 for 30 min at RT. Eu and Ulight were diluted by cAMP detection buffer and added to the plates separately to terminate the reaction. Plates were incubated at RT for 60 min before measuring the fluorescence intensity at 620 nm and […] by an EnVision multilabel plate reader (PerkinElmer, Boston, USA).
# GLP-2R Y182^1.43A = molecular target: T2, GLP-2R Y182^1.43A (Homo sapiens, UniProt O95838, Y182A); experiment: cAMP accumulation, Y182^1.43A; assay type: cell-based; parameters: WT (1–553); expressed in transfected cells; HEK 293T (cAMP); conditions: Table S3, Y182A; HEK 293T, 30 min, RT; mean ± SEM, n ≥ 3 in duplicate; read-out: cAMP Emax (% WT)
# T2 sequence (O95838 1-553 Y182A): T1 sequence (O95838 1-553 R344A) with Y182A, A344R
# Experimental: as §1
% Binding of WT (GLP-2R ECL1 (GLP-1R)) [%],% Binding of WT [1] [%],% Binding of WT [2] [%],% Binding of WT [3] [%],% Binding of WT [4] [%],% Binding of WT [5] [%],Compound,Emax (GLP-2R R344^5.40A) [%],Emax (GLP-2R Y182^1.43A) [%]
3.4,15.2,2.4,7.3,3.4,99.2,"[^125I]GLP-2(1–33, M10Y) (peptide)",,
,,,,,,CC[C@H](C)[C@H](NC(=O)[C@H](Cc1ccccc1)NC(=O)[C@H](CC(=O)O)NC(=O)[C@H](CCCNC(=N)N)NC(=O)[C@H](C)NC(=O)[C@H](C)NC(=O)[C@H](CC(C)C)NC(=O)[C@H](CC(N)=O)NC(=O)[C@H](CC(=O)O)NC(=O)[C@H](CC(C)C)NC(=O)[C@@H](NC(=O)[C@@H](NC(=O)[C@H](CC(N)=O)NC(=O)[C@H](CCSC)NC(=O)[C@H](CCC(=O)O)NC(=O)[C@H](CC(=O)O)NC(=O)[C@H](CO)NC(=O)[C@H](Cc1ccccc1)NC(=O)[C@H](CO)NC(=O)CNC(=O)[C@H](CC(=O)O)NC(=O)[C@H](C)NC(=O)[C@@H](N)Cc1c[nH]cn1)[C@@H](C)O)[C@@H](C)CC)C(=O)N[C@@H](CC(N)=O)C(=O)N[C@@H](Cc1c[nH]c2ccccc12)C(=O)N[C@@H](CC(C)C)C(=O)N[C@H](C(=O)N[C@@H](CCC(N)=O)C(=O)N[C@H](C(=O)N[C@@H](CCCCN)C(=O)N[C@H](C(=O)N[C@H](C(=O)N[C@@H](CC(=O)O)C(=O)O)[C@@H](C)O)[C@@H](C)CC)[C@@H](C)O)[C@@H](C)CC [Human GLP-2 (1–33)],109 ± 2.8,102 ± 3.9
